Test results: patent EP2155781B1
Blank lines part the entries; values can stand above or below the molecule they belong to. No end group written: not given here.

What was measured:
[1] = target: adrenomedullin receptors in the lungs of dogs (binding profile of the AM1 receptor, CRLR+RAMP2) (dog); assay: displacement of iodine-marked hAM in dog lungs
[2] = target: adrenomedullin receptors in the lungs of dogs (binding profile of the AM1 receptor, CRLR+RAMP2) (dog); assay: cell-based or functional assay

IC50 [1]: 0.041 nM
Molecule: N-terminal acetylated human adrenomedullin (peptide)

IC50 [1]: 7.1 nM
Molecule: linear human adrenomedullin hAM(1-52) (peptide)

mean single-pass pulmonary extraction of 125I-rAM(1-50) in dogs after CGRP (100 nmol) [2]: 40.6%
mean single-pass pulmonary extraction of 125I-rAM(1-50) in dogs, control before CGRP [2]: 44.6%
Molecule: CGRP (Phoenix Pharmaceuticals) (peptide)

mean single-pass pulmonary extraction of 125I-rAM(1-50) in dogs after administration of unlabelled rAM(1-50) (100 nmol) [2]: 21.9%
Molecule: unlabelled rAM(1-50) (from UniProt P43145 94-143) (peptide)

IC50 [1]: 0.055 nM
Molecule: human adrenomedullin hAM(1-52), cyclic (peptide)

IC50 [1]: 440 nM
Molecule: hCGRP (from UniProt P06881 83-119) (peptide)

mean single-pass pulmonary extraction of 125I-rAM(1-50) in dogs in vivo (indicator dilution), baseline [2]: 36.4%
Molecule: 125I-rAM(1-50), 125I labelled rat adrenomedullin (from UniProt P43145 94-143) (peptide)

IC50 [1]: 980 nM
B1: hAM2(16-47) (peptide, UniProt Q7Z4H4 116-147, looked up)
peptide: QVQNLSHRLWQLMGPAGRQDSAPVDPSSPHSY
modifications: ends and bridges not checked

mean single-pass pulmonary extraction of 125I-rAM(1-50) in dogs after hAM(22-52) (100 nmol) [2]: 31.4%
mean single-pass pulmonary extraction of 125I-rAM(1-50) in dogs before hAM(22-52) [2]: 40%
IC50 [1]: 810 nM
B2: hAM(22-52) (peptide)
peptide: TVQKLAHQIYQFTDKDKDNVAPRSKISPQGY-NH2

IC50 [1]: 480 nM
B3: hAM2 (peptide, UniProt Q7Z4H4 101-147, looked up)
peptide: TQAQLLRVGCVLGTCQVQNLSHRLWQLMGPAGRQDSAPVDPSSPHSY

IC50 [1]: 34 nM
B4: hAM(13-52) (peptide)
peptide: SFGCRFGTCTVQKLAHQIYQFTDKDKDNVAPRSKISPQGY-NH2
modifications: ends and bridges not checked
